# Data: patent publication US20240182536A1 (MURAL ONCOLOGY, published 2024)
# T1: IL-18 receptor (IL-18Rα and IL-18Rβ) (UniProt Q13478 19-541; O95256 20-599, limits assumed)
# T1 sequence (looked up) 1: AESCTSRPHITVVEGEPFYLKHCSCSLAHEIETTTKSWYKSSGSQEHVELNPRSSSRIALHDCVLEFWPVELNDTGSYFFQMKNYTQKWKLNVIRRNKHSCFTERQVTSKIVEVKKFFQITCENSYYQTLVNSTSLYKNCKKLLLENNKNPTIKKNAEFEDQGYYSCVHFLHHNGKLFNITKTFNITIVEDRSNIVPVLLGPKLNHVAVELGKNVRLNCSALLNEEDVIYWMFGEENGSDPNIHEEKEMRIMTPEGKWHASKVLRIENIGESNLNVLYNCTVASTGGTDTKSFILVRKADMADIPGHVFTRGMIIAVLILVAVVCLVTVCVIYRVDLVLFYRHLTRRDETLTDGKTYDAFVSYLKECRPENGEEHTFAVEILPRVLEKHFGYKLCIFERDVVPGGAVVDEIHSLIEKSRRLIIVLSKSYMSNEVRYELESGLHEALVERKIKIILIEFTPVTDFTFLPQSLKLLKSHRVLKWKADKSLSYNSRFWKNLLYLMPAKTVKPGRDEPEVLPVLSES
# T1 sequence (looked up) 2: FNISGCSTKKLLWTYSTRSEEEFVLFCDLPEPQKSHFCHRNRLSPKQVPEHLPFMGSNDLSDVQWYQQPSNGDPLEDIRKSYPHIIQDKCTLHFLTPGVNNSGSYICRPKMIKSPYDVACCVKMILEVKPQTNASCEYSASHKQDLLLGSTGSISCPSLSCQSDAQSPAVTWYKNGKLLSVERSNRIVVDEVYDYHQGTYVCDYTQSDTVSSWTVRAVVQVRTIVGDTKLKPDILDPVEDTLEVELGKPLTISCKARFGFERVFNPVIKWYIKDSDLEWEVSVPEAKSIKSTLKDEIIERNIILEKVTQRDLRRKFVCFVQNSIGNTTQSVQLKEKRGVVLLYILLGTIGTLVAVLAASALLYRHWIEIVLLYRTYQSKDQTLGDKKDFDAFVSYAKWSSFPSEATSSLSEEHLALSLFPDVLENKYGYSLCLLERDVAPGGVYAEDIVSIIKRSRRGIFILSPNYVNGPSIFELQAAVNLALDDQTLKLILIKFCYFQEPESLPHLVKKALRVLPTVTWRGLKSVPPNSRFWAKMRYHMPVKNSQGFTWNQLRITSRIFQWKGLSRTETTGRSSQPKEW
# Molecular target: T1, IL-18 receptor (IL-18Rα and IL-18Rβ)
# Assay: cell-based or functional assay
Binder,"EC50 (pM), PBMC IFN gamma assay, average [pM]","EC50 (pM), PBMC IFN gamma assay, run 1 [pM]","EC50 (pM), PBMC IFN gamma assay, run 2 [pM]","EC50 (pM), PBMC IFN gamma assay, run 3 [pM]","PBMC IFN gamma EC50 relative to WT-IL18, average","PBMC IFN gamma EC50 relative to WT-IL18, run 1","PBMC IFN gamma EC50 relative to WT-IL18, run 2","PBMC IFN gamma EC50 relative to WT-IL18, run 3"
"hIL18 (G3V, E6K, K53A, M60K)- KiH (Fc fusion) YFVKLKSKLSVIRNLNDQVLFIDQGNRPLFEDMTDSDMRDNAPRTIFIISMYADSQPRGKAVTISVKSEKISTLSSENKIISFKEMNPPDNIKDTKSDIIFFQRSVPGHDNKMQFESSSYEGYFLASEKERDLFKLILKKEDELGDRSIMFTVQNED",5.46,8.83,3.21,4.33,0.03,0.04,0.03,0.03
"hIL18 (G3T, E6K, K53A, M60K) - KiH (Fc fusion) YFTKLKSKLSVIRNLNDQVLFIDQGNRPLFEDMTDSDMRDNAPRTIFIISMYADSQPRGKAVTISVKSEKISTLSSENKIISFKEMNPPDNIKDTKSDIIFFQRSVPGHDNKMQFESSSYEGYFLASEKERDLFKLILKKEDELGDRSIMFTVQNED",16,13.3,14,20.7,0.11,0.06,0.13,0.13
"hIL18 (G3V, E6K, K53S, M60K) - KiH (Fc fusion) YFVKLKSKLSVIRNLNDQVLFIDQGNRPLFEDMTDSDMRDNAPRTIFIISMYSDSQPRGKAVTISVKSEKISTLSSENKIISFKEMNPPDNIKDTKSDIIFFQRSVPGHDNKMQFESSSYEGYFLASEKERDLFKLILKKEDELGDRSIMFTVQNED",16.8,17.8,21.6,10.9,0.12,0.07,0.21,0.07
"hIL18 (G3T, K53A, M60K) - KiH (Fc fusion) YFTKLESKLSVIRNLNDQVLFIDQGNRPLFEDMTDSDMRDNAPRTIFIISMYADSQPRGKAVTISVKSEKISTLSSENKIISFKEMNPPDNIKDTKSDIIFFQRSVPGHDNKMQFESSSYEGYFLASEKERDLFKLILKKEDELGDRSIMFTVQNED",195,209,214,162,1.3,0.87,2.04,1
"hIL18 (G3V, K53A, M60K) - KiH (Fc fusion) YFVKLESKLSVIRNLNDQVLFIDQGNRPLFEDMTDSDMRDNAPRTIFIISMYADSQPRGKAVTISVKSEKISTLSSENKIISFKEMNPPDNIKDTKSDIIFFQRSVPGHDNKMQFESSSYEGYFLASEKERDLFKLILKKEDELGDRSIMFTVQNED",60.6,47.3,75,59.4,0.43,0.2,0.71,0.37
"hIL18 (G3T, E6K, K53S, M60K) - KiH (Fc fusion) YFTKLKSKLSVIRNLNDQVLFIDQGNRPLFEDMTDSDMRDNAPRTIFIISMYSDSQPRGKAVTISVKSEKISTLSSENKIISFKEMNPPDNIKDTKSDIIFFQRSVPGHDNKMQFESSSYEGYFLASEKERDLFKLILKKEDELGDRSIMFTVQNED",84.4,90.3,121,41.6,0.6,0.37,1.15,0.26
